Experimental data from paper PMC4184891, “Involvement of the Iron Regulatory Protein from Eisenia andrei Earthworms in the Regulation of Cellular Iron Homeostasis”.

T1: rEaIRP (iron regulatory protein) (Eisenia andrei, UniProt I1VH49 1-890)
T1 sequence: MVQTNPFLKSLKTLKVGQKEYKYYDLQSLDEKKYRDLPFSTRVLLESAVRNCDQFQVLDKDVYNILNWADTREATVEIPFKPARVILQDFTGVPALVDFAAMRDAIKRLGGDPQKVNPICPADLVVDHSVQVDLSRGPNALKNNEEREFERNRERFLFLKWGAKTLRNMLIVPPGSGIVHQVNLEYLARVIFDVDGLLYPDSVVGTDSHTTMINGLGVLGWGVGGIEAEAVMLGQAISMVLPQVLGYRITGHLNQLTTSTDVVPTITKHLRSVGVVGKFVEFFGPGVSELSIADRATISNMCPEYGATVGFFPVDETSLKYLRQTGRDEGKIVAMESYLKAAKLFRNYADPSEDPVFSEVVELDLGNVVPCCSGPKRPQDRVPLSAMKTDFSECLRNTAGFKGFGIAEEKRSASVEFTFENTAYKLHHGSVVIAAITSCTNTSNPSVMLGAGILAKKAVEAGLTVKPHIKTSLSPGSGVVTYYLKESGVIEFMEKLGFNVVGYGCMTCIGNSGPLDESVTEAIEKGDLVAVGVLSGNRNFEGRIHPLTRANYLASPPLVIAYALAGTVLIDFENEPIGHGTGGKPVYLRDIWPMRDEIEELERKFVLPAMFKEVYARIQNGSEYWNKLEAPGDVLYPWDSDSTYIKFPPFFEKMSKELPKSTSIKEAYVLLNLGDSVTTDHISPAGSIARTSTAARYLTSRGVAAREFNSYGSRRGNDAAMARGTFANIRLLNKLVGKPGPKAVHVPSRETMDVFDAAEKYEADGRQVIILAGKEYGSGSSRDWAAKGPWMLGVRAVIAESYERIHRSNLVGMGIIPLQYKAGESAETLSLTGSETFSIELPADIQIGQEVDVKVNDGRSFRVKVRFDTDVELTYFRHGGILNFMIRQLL

B1: MAMconsIRE (structured_RNA)
RNA: GGGUUUCCUGCUUCAACAGUGCUUGGACGGAACCC
modifications: Bio-11-UTP incorporated in transcription (probe)
B2: EAconsIRE (structured_RNA)
RNA: GGGUGCUUUGCUGCGUCAGUGUGCGUGCGAGCUAA
modifications: Bio-11-UTP incorporated in transcription (probe)

What was measured:
[1] = target: T1, rEaIRP (iron regulatory protein); test: EMSA; 6 nM RNA, 50 nM protein, tRNA; reduced by 200-fold unlabeled MAMconsIRE; LightShift RNA EMSA kit binding buffer (composition not given), 5% glycerol, 2 ug tRNA, 20 ul, 30 min room temperature; rEaIRP reduced with 1 mM 2-mercaptoethanol; 6% native PAGE in 0.5X TBE; pH and salt not given; liver extract lanes left out (protein not identified); details: protein: recombinant; tags: N-terminal 6xHis (pRSET B); label: biotin; hairpin with bulged C
[2] = target: T1, rEaIRP (iron regulatory protein); test: EMSA; 6 nM RNA, 5-150 nM protein, tRNA; complex visible at 20 nM, distinct at 50 nM; low affinity; competed by unlabeled EAconsIRE; LightShift RNA EMSA kit binding buffer (composition not given), 5% glycerol, 2 ug tRNA, 20 ul, 30 min room temperature; rEaIRP reduced with 1 mM 2-mercaptoethanol; 6% native PAGE in 0.5X TBE; pH and salt not given; liver extract lanes left out (protein not identified); details: protein: recombinant; tags: N-terminal 6xHis (pRSET B); label: biotin; hairpin; optimal fold has unpaired U one nt closer to the loop instead of bulged C

Binder | binding result [1] | binding result [2]
B1 | binds | –
B2 | – | binds
